Test results: publication PMC11655885, “Structural mechanism of CB1R binding to peripheral and biased inverse agonists” (Nature Communications, 2024)

Experiments:
CB1R-5M-PGS = CB1R-5M-PGS (Homo sapiens, UniProt P21554); assay: Analytical gel filtration test of CNB36 binding to CB1R-5M-PGS; conditions: purified CNB36
Protocol: For binding tests, 10 μM purified CNB36 was incubated for 1 hr with purified PGS or CB1R-5M-PGS (5 μM). The complex was then centrifuged at 21,130 × g for 15 min at 4 °C to remove large aggregates, and the supernatant was run on an analytical-grade Superdex 200 10/300 Increase column at 0.5 mL/min in CB1 gel filtration buffer. The presence or absence of binding of CNB36 to CB1R-5M-PGS or to PGS alone was assessed by SDS-PAGE analysis of peak fractions.

[1] = system: CB1R-5M-PGS over GPR55-PGS; assay: Analytical flow cytometry of yeast-displayed CNB36, CB1R-5M-PGS versus GPR55-PGS; type: binding
Protocol: Supplementary Figure 1. (A-H) Sel ecti on and bi ochemi cal characteri zati on of CNB36
(A) Overall strategy for nanobody selection and sequence of CNB36.
(B) FA C S sort of a yeast display nanobody library against Alexa647-labeled CB1-PGS […]
round of selection that gave rise to CNB36. The indicated gat e (P5) contains the highly fluorescent CB1-PGS single posit ive populat ion, which was then analyzed by sequencing of individual clones.
(C) Binding of CNB36 to CB1-PGS, read out by size exclusion chromatography and SDS-PA G E . […]
(D) Assessment of binding of CNB36 to PGS alone, as in C.
(E) Analytical flow cytometry comparing binding of CNB36-expressing yeast t o Alexa647-labeled CB1-PGS (Y-axis) versus FI TC-labeled GPR55-PGS (X-axis).
(F) Final sample used for cryo-EM grid preparat ion by size excusion chromatography and […]

Sequence of CB1R-5M-PGS (P21554 with tags, fused parts or gaps): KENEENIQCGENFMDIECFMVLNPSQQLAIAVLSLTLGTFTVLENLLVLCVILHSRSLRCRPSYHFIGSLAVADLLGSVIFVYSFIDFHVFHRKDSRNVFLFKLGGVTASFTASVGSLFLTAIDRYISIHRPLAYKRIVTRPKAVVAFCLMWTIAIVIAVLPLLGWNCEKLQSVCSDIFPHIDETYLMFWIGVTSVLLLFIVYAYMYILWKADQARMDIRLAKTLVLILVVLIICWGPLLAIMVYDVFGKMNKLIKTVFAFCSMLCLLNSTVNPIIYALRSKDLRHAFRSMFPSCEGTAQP

B1: CNB36: nanobody selected from a yeast display library against the CB1R-5M-PGS fusion protein (antibody, V domains shown)
VH: QVQLQESGGGLVQAGGSLRLSCAASGTIFGPDVMGWYRQAPGKERELVAGISNGANTYYADSVKGRFTISRDNAKNTVYLQMNSLKPEDTAVYYCAAEVLDYTFAYLYHAYWGQGTQVTVSS
complex formation with CB1R-5M-PGS by size exclusion chromatography (CB1R-5M-PGS): formed a stable complex
specificity for purified CB1R-5M-PGS over GPR55-PGS by FACS [1]: high specificity
